Measurements: patent publication US20240216513A1, “FATTY ACID-BIFUNCTIONAL DEGRADER CONJUGATES AND THEIR METHODS OF USE” (Novartis AG, priority 2021, published 2024)

What was measured:
[1] = BTK FAC plasma stability assay, dog plasma; assay type: in vitro ADME; conditions: for half-life at 5 µM: read-out: Plasma stability (h) dog (converted)
[2] = BTK FAC plasma stability assay, rat plasma; assay type: in vitro ADME; conditions: for Plasma stability (h) rat / half-life at 5 µM: incubation to 24 h
Method: (§1) Plasma stability was conducted in Dulbecco's PBS buffer, mouse plasma, rat plasma or human plasma frozen with K3-EDTA from BiolVT). Thawed plasma was centrifuged prior to warming for 5 minutes at 37° C. Working solutions were prepared from 10 mM DMSO solution to 500 µM in acetonitrile:water (1:1); 2 µL of working solution was added to 198 µL blank plasma or PBS and mixed manually. 4×45 µL of spiked matrix was aliquoted into glass incubation plates (96-well DW glass microplate) and sealed with blue silicon/PTFE seal; then incubated on a Thermo shaker (38° C. 300 RPM). Samples were prepared at 0, 2, 6 and 24 h timepoints, by protein precipitation with chilled acetonitrile containing internal standard Glyburide (0.2 µM). Precipitated samples were shaken for 10 minutes and stored at 4° C. until completion of the study. Following precipitation of the terminal sample, samples were frozen at −80° C. for 1 hour. Samples were then thawed prior to centrifugation (20 minutes, 4500 RPM at 4° C.). 50 µL of supernatant of each sample was transferred to 384 well analysis plate containing 30 µL of water. Semi quantitative analysis (analyte: internal standard peak area ratio) was performed by LC-MS/MS using a Sciex QTrap 5500.

[3] = BTK FAC plasma stability assay, PBS buffer arm; assay type: physicochemical; conditions: for Plasma stability (h) PBS: incubation to 24 h
Method: as §1

[4] = BTK FAC plasma stability assay, mouse plasma; assay type: in vitro ADME; conditions: for Plasma stability (h) mouse / half-life at 5 µM: incubation to 24 h
Method: as §1

Row | SMILES | Plasma stability (h) dog [1] [h] | % Release of degrader after 24 h dog [1] [%] | % Release of degrader after 24 h rat [2] [%] | Plasma stability (h) rat [2] [h] | % Release of degrader after 24 h PBS [3] [%] | Plasma stability (h) PBS [3] [h] | % Release of degrader after 24 h mouse [4] [%] | Plasma stability (h) mouse [4] [h] | half-life at 5 µM [1] [h] | half-life at 5 µM [2] [h] | half-life at 5 µM [4] [h]
1 | CCCCCCCCCCCN(C(=O)CCCCCCCCCC(=O)O)C(CCC(=O)NCCOCCOCCOCCOCCOCCOCCOCCOCCOCCOCCOCCOCCC(=O)NCC(=O)NCn1c(-c2ccc(CCN3CCC4(CC3)CCN(C(=O)c3ccc(OC)c(N5CCC(=O)NC5=O)c3)CC4)cc2)cc2c(-c3cc(F)cc(NC(=O)c4ccc(C(C)(C)O)cc4F)c3C)ncnc21)C(=O)O (stereo not drawn) [Example A38, 49-Carboxy-1-(6-(4-(2-(9-(3-(2,4-dioxotetrahydropyrimidin-1(2H)-yl)-4-methoxybenzoyl)-3,9-diazaspiro[5.5]undecan-3-yl)ethyl)phenyl)-4-(5-fluoro-3-(2-fluoro-4-(2-hydroxypropan-2-yl)benzamido)-2-methylphenyl)-7H-pyrrolo[2,3-d]pyrimidin-7-yl)-3,6,46,51-tetraoxo-50-undecyl-9,12,15,18,21,24,27,30,33,36,39,42-dodecaoxa-2,5,45,50-tetraazahenhexacontan-61-oic acid] | >48 | 0.1 | 0.1 | >48 | 0.2 | >48 | 0.1 | >48 | – | – | –
2 | CCCCCCCCCCCN(C(=O)CCCCCCCCCC(=O)O)[C@H](CCC(=O)NCCOCCOCCOCCOCCOCCOCCOCCOCCOCCOCCOCCOCCC(=O)NCC(=O)OC(C)(C)c1ccc(C(=O)Nc2cc(F)cc(-c3ncnc4[nH]c(-c5ccc(CCN6CCC7(CC6)CCN(C(=O)c6ccc(OC)c(N8CCC(=O)NC8=O)c6)CC7)cc5)cc34)c2C)c(F)c1)C(=O)O [Example A3, (R)-50-Carboxy-2-(4-((3-(6-(4-(2-(9-(3-(2,4-dioxotetrahydropyrimidin-1(2H)-yl)-4-methoxybenzoyl)-3,9-diazaspiro[5.5]undecan-3-yl)ethyl)phenyl)-7H-pyrrolo[2,3-d]pyrimidin-4-yl)-5-fluoro-2-methylphenyl)carbamoyl)-3-fluorophenyl)-2-methyl-4,7,47,52-tetraoxo-51-undecyl-3,10,13,16,19,22,25,28,31,34,37,40,43-tridecaoxa-6,46,51-triazadohexacontan-62-oic acid] | 44.4 | 9.7 | 9 | >48 | 1.9 | >48 | 5.2 | >48 | – | – | –
3 | CCCCCCCCCCCN(C(=O)CCCCCCCCCC(=O)O)[C@@H](CCC(=O)N(CCNC(=O)CCOCCOCCOCCOCCOCCOCCOCCOCCOCCOCCOCCOC)CC(=O)OC(C)(C)c1ccc(C(=O)Nc2cc(F)cc(-c3ncnc4[nH]c(-c5ccc(CCN6CCC7(CC6)CCN(C(=O)c6ccc(OC)c(N8CCC(=O)NC8=O)c6)CC7)cc5)cc34)c2C)c(F)c1)C(=O)O [Example A37, (S)-46-Carboxy-42-(2-((2-(4-((3-(6-(4-(2-(9-(3-(2,4-dioxotetrahydropyrimidin-1(2H)-yl)-4-methoxybenzoyl)-3,9-diazaspiro[5.5]undecan-3-yl)ethyl)phenyl)-7H-pyrrolo[2,3-d]pyrimidin-4-yl)-5-fluoro-2-methylphenyl)carbamoyl)-3-fluorophenyl)propan-2-yl)oxy)-2-oxoethyl)-38,43,48-trioxo-47-undecyl-2,5,8,11,14,17,20,23,26,29,32,35-dodecaoxa-39,42,47-triazaoctapentacontan-58-oic acid] | – | 2.2 | 1.5 | – | 1.7 | >48 | 2.1 | – | 44.7 | > 48 | > 48
4 | CCCCCCCCCCCN(C(=O)CCCCCCCCCC(=O)O)[C@@H](CCC(=O)NCC(=O)OC(C)(C)c1ccc(C(=O)Nc2cc(F)cc(-c3ncnc4[nH]c(-c5ccc(CCN6CCC7(CC6)CCN(C(=O)c6ccc(OC)c(N8CCC(=O)NC8=O)c6)CC7)cc5)cc34)c2C)c(F)c1)C(=O)O [Example A6, (S)-11-((1-Carboxy-4-((2-((2-(4-((3-(6-(4-(2-(9-(3-(2,4-dioxotetrahydropyrimidin-1(2H)-yl)-4-methoxybenzoyl)-3,9-diazaspiro[5.5]undecan-3-yl)ethyl)phenyl)-7H-pyrrolo[2,3-d]pyrimidin-4-yl)-5-fluoro-2-methylphenyl)carbamoyl)-3-fluorophenyl)propan-2-yl)oxy)-2-oxoethyl)amino)-4-oxobutyl)(undecyl)amino)-11-oxoundecanoic acid] | – | 4.6 | 21.1 | – | 0.4 | >48 | 37.4 | – | 12.7 | 36.6 | 10.7
5 | CCCCCCCCCCCN(C(=O)CCCCCCCCCC(=O)O)C(CCC(=O)NCCOCCOCCOCCOCCOCCOCCOCCOCCOCCOCCOCCOCCC(=O)N1CCC(F)(C(=O)OC(C)(C)c2ccc(C(=O)Nc3cc(F)cc(-c4ncnc5[nH]c(-c6ccc(CCN7CCC8(CC7)CCN(C(=O)c7ccc(OC)c(N9CCC(=O)NC9=O)c7)CC8)cc6)cc45)c3C)c(F)c2)CC1)C(=O)O (stereo not drawn) [Example A15, 44-Carboxy-1-(4-(((2-(4-((3-(6-(4-(2-(9-(3-(2,4-dioxotetrahydropyrimidin-1(2H)-yl)-4-methoxybenzoyl)-3,9-diazaspiro[5.5]undecan-3-yl)ethyl)phenyl)-7H-pyrrolo[2,3-d]pyrimidin-4-yl)-5-fluoro-2-methylphenyl)carbamoyl)-3-fluorophenyl)propan-2-yl)oxy)carbonyl)-4-fluoropiperidin-1-yl)-1,41,46-trioxo-45-undecyl-4,7,10,13,16,19,22,25,28,31,34,37-dodecaoxa-40,45-diazahexapentacontan-56-oic acid] | 23 | 22.5 | 39.4 | 30 | 0 | >48 | 96.9 | <2 | – | – | –
6 | CCCCCCCCCCCN(C(=O)CCCCCCCCCC(=O)O)C(CCC(=O)NCCOCCOCCOCCOCCOCCOCCOCCOCCOCCOCCOCCOCCOCCOCCOCCOCCOCCOCCOCCOCCOCCOCCOCCOCCC(=O)NCC(=O)OC(C)(C)c1ccc(C(=O)Nc2cc(F)cc(-c3ncnc4[nH]c(-c5ccc(CCN6CCC7(CC6)CCN(C(=O)c6ccc(OC)c(N8CCC(=O)NC8=O)c6)CC7)cc5)cc34)c2C)c(F)c1)C(=O)O (stereo not drawn) [Example A32, 86-Carboxy-2-(4-((3-(6-(4-(2-(9-(3-(2,4-dioxotetrahydropyrimidin-1(2H)-yl)-4-methoxybenzoyl)-3,9-diazaspiro[5.5]undecan-3-yl)ethyl)phenyl)-7H-pyrrolo[2,3-d]pyrimidin-4-yl)-5-fluoro-2-methylphenyl)carbamoyl)-3-fluorophenyl)-2-methyl-4,7,83,88-tetraoxo-87-undecyl-3,10,13,16,19,22,25,28,31,34,37,40,43,46,49,52,55,58,61,64,67,70,73,76,79-pentacosaoxa-6,82,87-triazaoctanonacontan-98-oic acid] | 37.3 | 4.7 | 6.1 | 20.8 | 1 | >48 | 5.8 | 27 | – | – | –
7 | CCCCCCCCCCCN(C(=O)CCCCCCCCCC(=O)O)C(CCC(=O)NCCOCCOCCOCCOCCC(=O)NCC(=O)O[C@H]1CN(C(=O)Nc2cc(F)cc(-c3ncnc4[nH]c(-c5ccc(CCN6CCC7(CC6)CCN(C(=O)c6ccc(OC)c(N8CCC(=O)NC8=O)c6)CC7)cc5)cc34)c2C)C[C@@H]1CC(C)C)C(=O)O (stereo partly drawn) [Example A30, 23-Carboxy-1-(((3R,4S)-1-((3-(6-(4-(2-(9-(3-(2,4-dioxotetrahydropyrimidin-1(2H)-yl)-4-methoxybenzoyl)-3,9-diazaspiro[5.5]undecan-3-yl)ethyl)phenyl)-7H-pyrrolo[2,3-d]pyrimidin-4-yl)-5-fluoro-2-methylphenyl)carbamoyl)-4-isobutylpyrrolidin-3-yl)oxy)-1,4,20,25-tetraoxo-24-undecyl-7,10,13,16-tetraoxa-3,19,24-triazapentatriacontan-35-oic acid] | – | – | – | – | – | >72 | – | <1 | – | – | –
8 | CCCCCCCCCCCN(C(=O)CCCCCCCCCC(=O)O)C(CCC(=O)NCCOCCOCCOCCOCCC(=O)NCC(=O)OC(C)(C)c1ccc(C(=O)Nc2cc(F)cc(-c3ncnc4[nH]c(-c5ccc(CCN6CCC7(CC6)CCN(C(=O)c6ccc(OC)c(N8CCC(=O)NC8=O)c6)CC7)cc5)cc34)c2C)c(F)c1)C(=O)O (stereo not drawn) [Example A7, 26-Carboxy-2-(4-((3-(6-(4-(2-(9-(3-(2,4-dioxotetrahydropyrimidin-(2H)-yl)-4-methoxybenzoyl)-3,9-diazaspiro[5.5]undecan-3-yl)ethyl)phenyl)-7H-pyrrolo[2,3-d]pyrimidin-4-yl)-5-fluoro-2-methylphenyl)carbamoyl)-3-fluorophenyl)-2-methyl-4,7,23,28-tetraoxo-27-undecyl-3,10,13,16,19-pentaoxa-6,22,27-triazaoctatriacontan-38-oicacid] | – | – | – | – | 1.5 | >48 | 53.6 | 10.1 | – | – | –
